Measured values published in patent US20260109776A1 (Amgen, published 2026).
Like-named read-outs stand apart in the source and are kept apart here.

T1: cynomolgus monkey CD40 (cynomolgus monkey, UniProt P25942 21-193 (human entry), limits assumed)
T1 chain: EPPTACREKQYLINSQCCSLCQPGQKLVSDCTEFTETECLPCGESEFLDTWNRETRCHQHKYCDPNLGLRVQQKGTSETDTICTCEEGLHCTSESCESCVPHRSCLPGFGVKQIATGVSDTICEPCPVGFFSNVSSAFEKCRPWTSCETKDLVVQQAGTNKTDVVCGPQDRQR

T2: mouse CD40 on cells (mouse, UniProt P27512 20-289)
T2 construct: whole, on cells; also called mouse CD40 on HEK293 cells; CD40 on mouse B cells
T2 sequence (looked up): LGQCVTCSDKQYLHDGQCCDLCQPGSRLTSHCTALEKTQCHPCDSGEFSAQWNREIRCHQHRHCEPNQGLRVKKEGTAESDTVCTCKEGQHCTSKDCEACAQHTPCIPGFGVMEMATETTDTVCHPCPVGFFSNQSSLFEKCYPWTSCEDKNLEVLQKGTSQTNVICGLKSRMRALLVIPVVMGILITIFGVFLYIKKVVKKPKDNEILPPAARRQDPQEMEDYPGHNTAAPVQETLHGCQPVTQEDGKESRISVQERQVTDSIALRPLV

T3: human TNFR1 (human, UniProt P19438 30-455)
T3 construct: whole, on cells
T3 sequence (looked up): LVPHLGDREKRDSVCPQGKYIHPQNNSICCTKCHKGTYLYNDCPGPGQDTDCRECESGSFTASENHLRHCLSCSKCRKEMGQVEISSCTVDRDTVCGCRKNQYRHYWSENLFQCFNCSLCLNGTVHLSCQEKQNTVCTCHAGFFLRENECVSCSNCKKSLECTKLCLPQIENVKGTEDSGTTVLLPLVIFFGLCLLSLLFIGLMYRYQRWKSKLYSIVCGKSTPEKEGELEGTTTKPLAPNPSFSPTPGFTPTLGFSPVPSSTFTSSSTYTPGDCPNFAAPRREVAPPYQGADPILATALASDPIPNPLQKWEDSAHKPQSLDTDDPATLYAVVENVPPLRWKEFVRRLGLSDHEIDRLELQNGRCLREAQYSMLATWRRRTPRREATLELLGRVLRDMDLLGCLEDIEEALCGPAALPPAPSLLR

T4: human TNFR2 (human, UniProt P20333 23-461)
T4 construct: whole, on cells
T4 sequence (looked up): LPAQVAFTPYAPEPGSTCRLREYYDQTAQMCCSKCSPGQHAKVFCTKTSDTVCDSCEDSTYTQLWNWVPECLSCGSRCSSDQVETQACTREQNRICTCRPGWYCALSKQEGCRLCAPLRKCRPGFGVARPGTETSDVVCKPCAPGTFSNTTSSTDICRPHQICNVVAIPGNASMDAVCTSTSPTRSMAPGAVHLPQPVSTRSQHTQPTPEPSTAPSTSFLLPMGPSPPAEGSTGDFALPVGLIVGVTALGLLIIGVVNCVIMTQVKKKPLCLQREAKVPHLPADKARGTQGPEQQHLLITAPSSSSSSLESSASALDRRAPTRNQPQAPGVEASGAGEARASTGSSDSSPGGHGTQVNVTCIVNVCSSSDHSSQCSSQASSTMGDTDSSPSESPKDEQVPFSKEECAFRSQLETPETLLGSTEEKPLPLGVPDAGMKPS

T5: human TNFR14 (human, UniProt Q92956 39-283)
T5 construct: whole, on cells
T5 sequence (looked up): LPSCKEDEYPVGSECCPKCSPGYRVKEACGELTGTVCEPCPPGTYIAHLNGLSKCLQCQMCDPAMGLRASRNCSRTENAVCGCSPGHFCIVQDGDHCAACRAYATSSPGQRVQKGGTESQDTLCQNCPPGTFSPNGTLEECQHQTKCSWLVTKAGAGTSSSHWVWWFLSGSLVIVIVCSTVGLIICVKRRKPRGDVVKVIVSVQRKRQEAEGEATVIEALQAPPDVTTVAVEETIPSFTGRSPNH

B1: 4G7 (antibody, IgG4, V domains shown)
VH: QVQLVQSGAEVKKPGASVKVSCKASGYTFAGYYMHWVRQAPGQGLEWMGWINPDSGGTNFAQQFQGRVTMTRDTSISTAYMEVSRLRSDDTAVFYCAREKITMTGIYFDYWGQGTLVTVSS
VL: DIQMTQSPSSLSASVGDILTITCRASQNITTYLNWYQQKPGKAPNLLISAASRLRSGVPSRFSGSGSGTDFTLTISSLQPVDFTTFYCQQTFTTPWTFGQGTKVEIKR
notes: also called 4869-1
B2: 30A12 (antibody, IgG4, V domains shown)
VH: EVQLLESGGGLVQPGGSLRLSCAASGFTFSRNAMSWVRQAPGKGLEWVSATGGSGISTYYADSVKGRFTISRDNSKNTLYLQMNSLRAEDTAVYYCARGYSNSWWYFDYWGQGTLVTVSS
VL: QSALTQPASVSGSPGQSITISCTGTSSDVGNYNLVSWYQQHPGKAPKLMIFEVNQRPSGVSNRFSGSKSGTTASLTISGLQAADEADYFCCSYTTSSTYVIFGGGTKLTVLG
notes: also called 4878-1

What was measured:
human CD40 = human CD40 (human, UniProt P25942 21-193, limits assumed); assay: Octet
Sequence of human CD40 (P25942 21-193 limits assumed): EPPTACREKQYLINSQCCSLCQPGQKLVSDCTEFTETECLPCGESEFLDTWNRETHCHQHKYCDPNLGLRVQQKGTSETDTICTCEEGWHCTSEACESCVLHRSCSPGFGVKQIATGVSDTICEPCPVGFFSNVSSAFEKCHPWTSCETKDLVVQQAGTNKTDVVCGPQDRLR
Outline: (§1)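 Anti-human CD40 antibodies were tested by flow cytometry for binding to HEK293 cells transiently transfected with human TNFR1, TNFR2, TNFR10, TNFR14, or cynomolgus or mouse CD40. Affinity for human and cynomolgus CD40 was measured by Octet, giving Kon, Kdis and KD.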

cynomolgus monkey CD40 = target: T1, cynomolgus monkey CD40; assay: Octet
Outline: as §1

human CD40 on cells [1] = target: T6, human CD40 on cells (human, UniProt P25942 21-277); assay: cell-based or functional assay
human CD40 on cells [2] = target: T6, human CD40 on cells; assay: cell-based or functional assay; remark: listed apart in the source
Target sequence in this assay (P25942 21-277 limits assumed): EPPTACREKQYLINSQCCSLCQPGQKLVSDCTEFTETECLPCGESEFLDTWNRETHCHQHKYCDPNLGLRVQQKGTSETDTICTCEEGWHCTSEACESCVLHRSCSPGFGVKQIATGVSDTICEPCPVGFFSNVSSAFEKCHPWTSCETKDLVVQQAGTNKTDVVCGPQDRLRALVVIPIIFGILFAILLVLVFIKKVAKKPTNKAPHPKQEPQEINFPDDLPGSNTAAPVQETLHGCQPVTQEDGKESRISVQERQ

mouse CD40 on cells = target: T2, mouse CD40 on cells; assay: flow cytometry, HEK293 transfectants
human TNFR1 = target: T3, human TNFR1; assay: flow cytometry, HEK293 transfectants
Outline: as §1

human TNFR2 = target: T4, human TNFR2; assay: flow cytometry, HEK293 transfectants
Outline: as §1

human TNFR14 = target: T5, human TNFR14; assay: flow cytometry, HEK293 transfectants
Outline: as §1

human CD40 on cells [3] = target: T6, human CD40 on cells; assay: flow cytometry, labelled CD40L on CD40-293T cells, antibody at 5 ug/ml
Description: (§2) Percent ligand binding inhibition was calculated as [(CD40L binding gMFI in the absence of anti-CD40)−(CD40L binding gMFI in the presence of anti-CD40)]/(CD40L binding gMFI in the absence of anti-CD40). gMFI: geometric mean fluorescent intensity. All anti-CD40 antibodies show minimal effects on the ability of CD40L to bind to the CD40 receptor (Table 7).
Target sequence in this assay (P25942 21-277 limits assumed): as above

human CD40 on cells [4] = target: T6, human CD40 on cells; assay: flow cytometry, labelled CD40L on CD40-293T cells, antibody at 20 ug/ml
Description: as §2
Target sequence in this assay (P25942 21-277 limits assumed): as above

human CD40 on cells [5] = target: T6, human CD40 on cells; assay: flow cytometry, labelled CD40L on CD40-293T cells, antibody at 2.5 ug/ml
Description: as §2
Target sequence in this assay (P25942 21-277 limits assumed): as above

Binder | Kd (human CD40) [nM] | koff (human CD40) [s⁻¹] | kon (human CD40) [M⁻¹ s⁻¹] | Kd (cynomolgus monkey CD40) [nM] | koff (cynomolgus monkey CD40) [s⁻¹] | kon (cynomolgus monkey CD40) [M⁻¹ s⁻¹] | human B cell proliferation, no crosslinking, EC50 (human CD40 on cells [1]) [nM] | human B cell proliferation, no crosslinking, Max Fold Change (human CD40 on cells [1]) [fold] | human B cell proliferation, with protein G crosslinking, EC50 (human CD40 on cells [1]) [nM] | human B cell proliferation, with protein G crosslinking, Max Fold Change (human CD40 on cells [1]) [fold] | human B cell proliferation, no crosslinking, % Max Activity (human CD40 on cells [2]) [%] | human B cell proliferation, no crosslinking, EC50 (human CD40 on cells [2]) [nM] | human B cell proliferation, with protein G crosslinking, % Max Activity (human CD40 on cells [2]) [%] | human B cell proliferation, with protein G crosslinking, EC50 (human CD40 on cells [2]) [nM] | binding result (mouse CD40 on cells) | binding result (human TNFR1) | binding result (human TNFR2) | binding result (human TNFR14) | Ligand Binding Inhibition (%) (human CD40 on cells [3]) | Ligand Binding Inhibition (%) (human CD40 on cells [4]) | other results
B1 | 0.88 | 0.00108 | 1.23e+06 | 1.72 | 0.00193 | 1.13e+06 | > 16.7 | 1.19 | 0.43 | 18.1 | 6 | > 16.7 | 70.5 | 0.5 | no binding | no binding | no binding | no binding | 24 | 3 | Ligand Binding Inhibition (%) (human CD40 on cells [5]): 21%
B2 | 0.69 | 0.000368 | 533000 | 0.56 | 0.000306 | 544000 | > 16.7 | 1.45 | 0.362 | 23.8 | 8.6 | > 16.7 | 89.1 | 0.4 | no binding | no binding | no binding | no binding | -15 | -3 | Ligand Binding Inhibition (%) (human CD40 on cells [5]): -16%
